B1: αE-catenin α(CA) (M319G/R326E/R551E), as chain of the supra-complex (natural protein, mouse, UniProt P26231 1-906, looked up)
chain: MTAVHAGNINFKWDPKSLEIRTLAVERLLEPLVTQVTTLVNTNSKGPSNKKRGRSKKAHVLAASVEQATENFLEKGDKIAKESQFLKEELVVAVEDVRKQGDLMKSAAGEFADDPCSSVKRGNMVRAARALLSAVTRLLILADMADVYKLLVQLKVVEDGILKLRNAGNEQDLGIQYKALKPEVDKLNIMAAKRQQELKDVGNRDQMAAARGILQKNVPILYTASQACLQHPDVAAYKANRDLIYKQLQQAVTGISNAAQATASDDAAQHQGGSGGELAYALNNFDKQIIVDPLSFSEERFRPSLEERLESIISGAALGADSSCTEDDRRERIVAECNAVRQALQDLLSEYMGNAGRKERSDALNSAIDKMTKKTRDLRRQLRKAVMDHVSDSFLETNVPLLVLIEAAKNGNEKEVKEYAQVFREHANKLIEVANLACSISNNEEGVKLVRMSASQLEALCPQVINAALALAAKPQSKLAQENMDLFKEQWEKQVRVLTDAVDDITSIDDFLAVSENHILEDVNKCVIALQEKDVDGLDRTAGAIRGRAAEVIHVVTSEMDNYEPGVYTEKVLEATKLLSNTVMPRFTEQVEAAVEALSSDPAQPMDENEFIDASRLVYDGIRDIRKAVLMIRTPEELDDSDFETEDFDVRSRTSVQTEDDQLIAGQSARAIMAQLPQEQKAKIAEQVASFQEEKSKLDAEVSKWDDSGNDIIVLAKQMCMIMMEMTDFTRGKGPLKNTSDVISAAKKIAEAGSRMDKLGRTIADHCPDSACKQDLLAYLQRIALYCHQLNICSKVKAEVQNLGGELVVSGVDSAMSLIQAAKNLMNAVVQTVKASYVASTKYQKSQGMASLNLPAVSWKMKAPEKKPLVKREKQDETQTKIKRASQKKHVNPVQALSEFKAMDSI
notes: αE-catenin, mouse, untagged; residues 690–903 are modelled in the structure; used for the pairs that touch in the cryo-EM structure; also called αE-catenin ABD; ABD1; source: FreeStyle 293-F, co-expressed and purified within the tetramer Eβα(CA)-vinculin(T12-IV)

The target of data set [1] is F-actin (chicken skeletal muscle actin) (UniProt P68139). The data set can be described thus: F-actin co-sedimentation assay. The conditions noted are these: +CC (black bar; with mutant afadin-CC); mean ± SD of three independent experiments; parent: est. 0.89; read off a plot.
Data set [2] deals with the molecule itself. The experiment in a line: cryo-EM structure; 2.5 μM tetramer Eβα(CA)-Vinculin(T12-IV) premixed with 5 μM afadin-CC, added to 0.6 μM F-actin on the grid; maps at 3.1 Å (straight, both strands decorated) and 4.1 Å (curved, one strand decorated).
The target of data set [3] is B1. Described as above. The conditions noted are these: both partners purified.

The values below come from doi:10.1101/2024.10.08.617332 (bioRxiv, 2024).

“Eβα(CA)–vinculin(T12-IV)–afadin-CC pentamer (from UniProt Q02248;P26231;P18206-2;Q9QZQ1-3) afadin-CC:F1564A”: the response in data set [1] came to 0.35.

Turning to “Eβα(CA)–vinculin(T12-IV)–afadin-CC pentamer (from UniProt Q02248;P26231;P18206-2;Q9QZQ1-3) afadin-CC:W1514A; afadin-CC:R1516A; afadin-CC:D1517A; afadin-CC:F1564A”, the response in data set [1] came out at 0.3.

As for B1, the binding result in data set [2] was “binds”.

B2: afadin-CC (afadin coiled-coil region, residues 1393–1602), purified (domain or fragment, mouse, UniProt Q9QZQ1-3 1393-1602, looked up)
chain: ANQAGPQSAQVAAAEWKKREEHQRWYEKEKARLEEERERKRREQERKLGQMRSQTLNPASFSPLATQAKPEKPSTLQRPQETVIRELQPQQQPRTIERKDLQYITISKEELSSGDSLSPDPWKRDAREKLEKQQQMHIVDMLSKEIHELQNKVDRTAEESDRLRKLMLEWQFQKRLQESKQKDEDDDEEEDDDVDTMLIMQRLEAERRAR
notes: afadin coiled-coil region (afadin-CC), mouse; residues 1508–1578 are modelled in the structure; source: FreeStyle 293-F, transfected, purified (anti-GFP beads, TEV, MonoQ, SEC); not shown: GFP, N-terminal, cleaved
With B2, the binding result in data set [3] is listed as “binds”.
